Target: CD46 on target cells (LNCAP-C4-B2 and other prostate cancer cell lines) (UniProt P15529)
Assay: cell-based or functional assay

Chain of UniProt P15529 (P15529 35-392 limits assumed): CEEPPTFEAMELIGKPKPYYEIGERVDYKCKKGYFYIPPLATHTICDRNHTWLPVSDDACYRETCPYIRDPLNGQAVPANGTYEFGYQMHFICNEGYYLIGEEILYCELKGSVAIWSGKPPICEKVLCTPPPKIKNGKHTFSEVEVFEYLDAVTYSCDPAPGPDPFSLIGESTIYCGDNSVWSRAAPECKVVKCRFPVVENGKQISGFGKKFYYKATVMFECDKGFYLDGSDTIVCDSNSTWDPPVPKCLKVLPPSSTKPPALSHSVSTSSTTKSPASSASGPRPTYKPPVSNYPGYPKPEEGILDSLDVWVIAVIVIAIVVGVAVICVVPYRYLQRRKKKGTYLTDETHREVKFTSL

anti-CD46 CAR (YS5FL-scFv in a second generation lentivirus CAR containing CD28 and CD3zeta), on transduced human T cells
killing rate of LNCAP-C4-B2 target cells (real time cytotoxicity assay, impedance, effector:target 10:1): > 99%
